The values that follow come from paper PMC5067070.

The assay has as its target Xenopus laevis ERCC1 (Xenopus laevis (endogenous in egg extract)). Nature of the assay: immunodepletion.

Xenopus laevis SLX4 (natural protein) displayed a percent of SLX4 co-depleted of 90%.
